Experimental data from publication PMC8933513 (2022).

Tests used:
[1] = target: porcine aminopeptidase N (pAPN) ectodomain, residues 58-961, wild type (pig) (UniProt P15145); assay: SPR; […], room temperature; […] (0.01 M HEPES, 0.15 M NaCl, 0.5% surfactant P20, 3 mM EDTA, pH 7.4); […]
[2] = target: human aminopeptidase N (hAPN) ectodomain, residues 62-963, wild type (UniProt P15144); assay: as above
Sequence of human aminopeptidase N (hAPN) ectodomain, residues 62-963, wild type (P15144 62-963): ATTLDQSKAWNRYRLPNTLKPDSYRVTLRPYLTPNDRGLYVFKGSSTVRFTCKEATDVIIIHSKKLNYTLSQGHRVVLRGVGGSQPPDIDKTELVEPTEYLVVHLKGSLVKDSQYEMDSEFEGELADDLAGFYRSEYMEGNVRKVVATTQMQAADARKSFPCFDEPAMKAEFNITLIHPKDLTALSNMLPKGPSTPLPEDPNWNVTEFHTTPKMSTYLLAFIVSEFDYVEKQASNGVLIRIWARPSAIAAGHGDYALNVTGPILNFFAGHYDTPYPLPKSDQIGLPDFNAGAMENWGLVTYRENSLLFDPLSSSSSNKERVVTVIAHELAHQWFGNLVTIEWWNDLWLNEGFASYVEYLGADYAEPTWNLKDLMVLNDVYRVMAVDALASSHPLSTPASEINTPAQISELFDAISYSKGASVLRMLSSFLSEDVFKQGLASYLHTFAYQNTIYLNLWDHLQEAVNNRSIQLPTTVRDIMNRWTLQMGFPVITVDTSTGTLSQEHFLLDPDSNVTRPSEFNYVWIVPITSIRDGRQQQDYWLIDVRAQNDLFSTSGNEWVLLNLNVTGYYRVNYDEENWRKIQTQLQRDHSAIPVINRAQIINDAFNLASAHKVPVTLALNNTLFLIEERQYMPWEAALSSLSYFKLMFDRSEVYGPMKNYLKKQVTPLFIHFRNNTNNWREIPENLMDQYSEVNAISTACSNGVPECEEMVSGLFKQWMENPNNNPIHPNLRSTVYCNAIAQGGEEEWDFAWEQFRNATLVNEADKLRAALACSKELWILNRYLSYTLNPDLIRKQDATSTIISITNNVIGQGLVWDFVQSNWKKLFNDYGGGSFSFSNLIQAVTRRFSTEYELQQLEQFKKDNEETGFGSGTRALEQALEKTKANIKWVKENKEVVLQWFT

Sequence of porcine aminopeptidase N (pAPN) ectodomain, residues 58-961, wild type (pig) (P15145 58-961): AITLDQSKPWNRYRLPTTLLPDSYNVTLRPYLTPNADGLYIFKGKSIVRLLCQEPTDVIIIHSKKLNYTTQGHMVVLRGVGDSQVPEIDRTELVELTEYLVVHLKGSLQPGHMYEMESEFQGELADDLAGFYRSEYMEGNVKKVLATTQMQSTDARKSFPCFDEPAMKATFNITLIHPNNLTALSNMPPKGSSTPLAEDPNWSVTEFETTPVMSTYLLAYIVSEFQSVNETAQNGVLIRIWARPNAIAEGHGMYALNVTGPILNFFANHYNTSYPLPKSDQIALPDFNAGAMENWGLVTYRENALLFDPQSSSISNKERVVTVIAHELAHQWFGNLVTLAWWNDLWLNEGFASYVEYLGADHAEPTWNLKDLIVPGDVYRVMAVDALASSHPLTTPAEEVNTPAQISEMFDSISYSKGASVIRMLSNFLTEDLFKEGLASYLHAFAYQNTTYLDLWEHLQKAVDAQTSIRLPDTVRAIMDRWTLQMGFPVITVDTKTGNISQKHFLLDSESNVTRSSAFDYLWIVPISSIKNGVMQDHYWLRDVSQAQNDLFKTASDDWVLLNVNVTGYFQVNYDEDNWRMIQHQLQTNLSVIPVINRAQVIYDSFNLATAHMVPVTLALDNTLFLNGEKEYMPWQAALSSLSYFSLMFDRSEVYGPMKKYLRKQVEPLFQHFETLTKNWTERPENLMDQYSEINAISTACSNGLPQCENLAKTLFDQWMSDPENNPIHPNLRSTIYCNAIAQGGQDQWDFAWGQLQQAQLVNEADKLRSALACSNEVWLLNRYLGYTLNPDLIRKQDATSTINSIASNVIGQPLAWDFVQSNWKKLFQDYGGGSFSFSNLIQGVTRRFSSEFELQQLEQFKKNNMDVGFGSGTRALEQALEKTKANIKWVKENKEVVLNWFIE

Substance: PDCoV RBD with mutation of residues F318, E320, R322, R357, and Y398
- fold decrease in affinity against wild-type PDCoV RBD [1]: 5 to 150 fold
- fold decrease in affinity against wild-type PDCoV RBD [2]: 5 to 150 fold
